Target: full-length PcrV protein (recombinant, 1-294) (in the biotin-labeled form: PEO-maleimide activated biotin on the inserted cysteine)
Experiment: SPR

| Binder | Kd |
| --- | --- |
| 2A4 (antibody, V domains shown) VH: DVQLQESGPGLVKPSQSLSLTCTVTGYSITSDYAWNWIRQFPGNKLEWMGYITYNGDTSYNPSLKSRISIARDTSKNQFFLQLNSVTTEDTATYSCAGSRNYYGAWFAYWGQGTLVTVSA VL: DIVMTQSHKFMSTSIGDRVSINYKASQYVGTTVAWYQQKSGHSPKLLIYRASTRHTGVPDRFTGSGSGTDFTLNISNVQSEDLADYFCQQYCSSPLTFGAGTYLEVKR | 0.35 nM |
| 1F3 (antibody, V domains shown) VH: QVQLQQPGAELVKPGASVKLSCKASGYSFTSYWMHWVKQRPGQGLEWIGEINPSNGRTNYNEKFNTKATLTVDTSSSTAYMQLSSLTSEDSAVYYCVLYGNYVVYYTMDYWGQGTSVTVSS VL: QIVLTQSPTIMSASLGEEITLTCSASTSVSYMEWYQQKSGTSPKILIYTTSKLASGVPSRFSGSGSGTFYSLTISSVEAEDAADYYCHQWRNYPFTFGSGTKLEIKR | 0.37 nM |

Source: patent publication US20110150896A1 (published 2011)
